Measured values from patent publication US20190015483A1 (CSL BEHRING RECOMBINANT FACILITY, published 2019).
Substitutions are numbered along the chain they refer to. Names and notes keep the numbering of the source.

T1: recombinant Factor VIII (CSL627, rVIII-SingleChain) (Homo sapiens (Human), UniProt P00451 20-2351)
T1 construct: also called FVIII
T1 sequence: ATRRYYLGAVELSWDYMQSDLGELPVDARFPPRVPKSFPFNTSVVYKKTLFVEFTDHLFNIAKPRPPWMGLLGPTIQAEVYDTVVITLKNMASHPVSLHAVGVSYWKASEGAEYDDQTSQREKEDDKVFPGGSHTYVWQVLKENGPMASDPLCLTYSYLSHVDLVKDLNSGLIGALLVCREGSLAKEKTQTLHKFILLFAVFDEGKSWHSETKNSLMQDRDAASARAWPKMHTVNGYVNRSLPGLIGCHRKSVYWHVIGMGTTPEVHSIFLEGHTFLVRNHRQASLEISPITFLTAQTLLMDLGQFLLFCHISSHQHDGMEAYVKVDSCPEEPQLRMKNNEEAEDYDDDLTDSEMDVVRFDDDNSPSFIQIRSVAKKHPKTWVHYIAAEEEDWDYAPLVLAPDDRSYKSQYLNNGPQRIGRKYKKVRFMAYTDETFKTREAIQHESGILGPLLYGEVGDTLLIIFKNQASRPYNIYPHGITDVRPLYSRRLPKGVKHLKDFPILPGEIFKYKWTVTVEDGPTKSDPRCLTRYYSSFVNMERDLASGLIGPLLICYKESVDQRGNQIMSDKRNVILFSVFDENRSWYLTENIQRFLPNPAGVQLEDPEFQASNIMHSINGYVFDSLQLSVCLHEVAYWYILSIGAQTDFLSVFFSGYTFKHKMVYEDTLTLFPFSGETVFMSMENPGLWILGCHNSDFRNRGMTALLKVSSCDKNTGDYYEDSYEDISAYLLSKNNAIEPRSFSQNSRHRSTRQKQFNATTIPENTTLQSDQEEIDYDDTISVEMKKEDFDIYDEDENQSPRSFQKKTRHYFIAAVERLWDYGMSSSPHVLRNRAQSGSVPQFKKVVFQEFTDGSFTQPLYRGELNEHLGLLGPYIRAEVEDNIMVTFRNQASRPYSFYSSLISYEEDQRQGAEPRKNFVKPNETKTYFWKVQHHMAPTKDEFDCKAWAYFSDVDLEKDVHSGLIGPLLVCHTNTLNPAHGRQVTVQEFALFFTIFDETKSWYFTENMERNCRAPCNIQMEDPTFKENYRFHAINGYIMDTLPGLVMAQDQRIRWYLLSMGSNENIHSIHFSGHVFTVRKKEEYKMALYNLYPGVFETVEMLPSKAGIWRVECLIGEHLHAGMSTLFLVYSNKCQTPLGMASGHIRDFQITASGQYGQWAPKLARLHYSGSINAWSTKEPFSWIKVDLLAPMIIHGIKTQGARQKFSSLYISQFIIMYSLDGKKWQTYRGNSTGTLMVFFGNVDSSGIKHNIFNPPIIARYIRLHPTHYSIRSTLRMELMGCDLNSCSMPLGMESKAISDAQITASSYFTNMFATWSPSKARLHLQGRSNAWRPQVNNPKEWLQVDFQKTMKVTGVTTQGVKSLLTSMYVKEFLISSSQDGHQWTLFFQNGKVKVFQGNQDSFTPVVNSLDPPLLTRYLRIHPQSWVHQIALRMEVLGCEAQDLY

B1: Hu-vWF[764-1270]-8His S766Y-K773F (other)
chain: SLYCRPPMVFLVCPADNLRAEGLECTKTCQNYDLECMSMGCVSGCLCPPGMVRHENRCVALERCPCFHQGKEYAPGETVKIGCNTCVCRDRKWNCTDHVCDATCSTIGMAHYLTFDGLKYLFPGECQYVLVQDYCGSNPGTFRILVGNKGCSHPSVKCKKRVTILVEGGEIELFDGEVNVKRPMKDETHFEVVESGRYIILLLGKALSVVWDRHLSISVVLKQTYQEKVCGLCGNFDGIQNNDLTSSNLQVEEDPVDFGNSWKVSSQCADTRKVPLDSSPATCHNNIMKQTMVDSSCRILTSDVFQDCNKLVDPEPYLDVCIYDTCSCESIGDCACFCDTIAAYAHVCAQHGKVVTWRTATLCPQSCEERNLRENGYECEWRYNSCAPACQVTCQHPEPLACPVQCVEGCHAHCPPGKILDELLQTCVDPEDCPVCEVAGRRFASGKKVTLNPSDPEHCQICHCDVVNLTCEACQEPGGLVVPPTDAPVSPTTLYVEDISEPPLHDFHHHHHHHH
B2: Hu-vWF[764-1270]-8His S764P-S766V (other)
chain: B1 chain with S1P, Y3V, F10K
B3: Hu-vWF[764-1270]-8His S764P-S766N (other)
chain: B1 chain with S1P, Y3N, F10K
B4: Hu-vWF[764-1270]-8His S766Y-K773Q (other)
chain: B1 chain with F10Q
B5: Hu-vWF[764-1270]-8His S766Y-K773P (other)
chain: B1 chain with F10P
B6: Hu-vWF[764-1270]-8His S766Y-K773R (other)
chain: B1 chain with F10R
B7: Hu-vWF[764-1270]-8His S766Y-K773I (other)
chain: B1 chain with F10I
B8: Hu-vWF[764-1270]-8His S764P-S766P (other)
chain: B1 chain with S1P, Y3P, F10K
B9: Hu-vWF[764-1270]-8His S766Y-K773N (other)
chain: B1 chain with F10N
B10: Hu-vWF[764-1270]-8His S766Y-K773E (other)
chain: B1 chain with F10E
B11: Hu-vWF[764-1270]-8His S766Y-K773T (other)
chain: B1 chain with F10T
B12: Hu-vWF[764-1270]-8His S766Y-K773V (other)
chain: B1 chain with F10V
B13: Hu-vWF[764-1270]-8His S766Y-K773H (other)
chain: B1 chain with F10H
B14: Hu-vWF[764-1270]-8His S766Y-K773G (other)
chain: B1 chain with F10G
B15: Hu-vWF[764-1270]-8His S766Y-K773Y (other)
chain: B1 chain with F10Y
B16: Hu-vWF[764-1270]-8His S764P-S766Q (other)
chain: B1 chain with S1P, Y3Q, F10K
B17: Hu-vWF[764-1270]-8His S766Y-K773A (other)
chain: B1 chain with F10A
B18: Hu-vWF[764-1270]-8His S766Y-K773L (other)
chain: B1 chain with F10L
B19: Hu-vWF[764-1270]-8His S766Y-K773M (other)
chain: B1 chain with F10M
B20: Hu-vWF[764-1270]-8His S766Y-K773S (other)
chain: B1 chain with F10S
B21: Hu-vWF[764-1270]-8His S766Y-K773D (other)
chain: B1 chain with F10D
B22: Hu-vWF[764-1270]-8His S766Y-K773W (other)
chain: B1 chain with F10W
B23: Hu-vWF[764-1270]-8His S764P-S766W (other)
chain: B1 chain with S1P, Y3W, F10K
B24: Hu-vWF[764-1270]-8His S764P-S766R (other)
chain: B1 chain with S1P, Y3R, F10K
B25: Hu-vWF[764-1270]-8His S764P-S766T (other)
chain: B1 chain with S1P, Y3T, F10K
B26: Hu-vWF[764-1270]-8His S764A/S766Y (other)
chain: B1 chain with S1A, F10K
B27: Hu-vWF[764-1270]-8His S764H/S766Y (other)
chain: B1 chain with S1H, F10K
B28: Hu-vWF[764-1270]-8His S764I/S766Y (other)
chain: B1 chain with S1I, F10K
B29: Hu-vWF[764-1270]-8His S764F/S766Y (other)
chain: B1 chain with S1F, F10K
B30: Hu-vWF[764-1270]-8His S764E/S766Y (other)
chain: B1 chain with S1E, F10K
B31: Hu-vWF[764-1270]-8His S764G/S766Y (other)
chain: B1 chain with S1G, F10K
B32: Hu-vWF[764-1270]-8His S764D/S766Y (other)
chain: B1 chain with S1D, F10K

target: T1, recombinant Factor VIII (CSL627, …); experiment: SPR, anti-His capture
Method: (§1) Binding kinetics were investigated by surface plasmon resonance using a Biacore 4000 biosensor at 37° C. Each mutant was captured from cell culture medium to a density of 40-150 RU on a CM-5 sensor chip pre-immobilised with anti-His antibody (14,000 RU). In an initial screening study, FVIII was injected over the captured mutants for 5 minutes at 1 nM and dissociation monitored for 5 minutes.
(§2) All sensorgrams were double referenced by subtraction of signals from a reference spot (containing only immobilised anti His antibody) and from a blank injection. Binding kinetics were determined by fitting the double referenced sensorgrams to a 1:1 kinetic model.

Kd	koff	kon	Binder
0.158 nM	0.00324 s⁻¹	2.05e+07 M⁻¹ s⁻¹	B1
0.0956 nM	7.82e-05 s⁻¹	819000 M⁻¹ s⁻¹	B2
0.0104 nM	9.14e-05 s⁻¹	8.82e+06 M⁻¹ s⁻¹	B3
0.0393 nM	0.000939 s⁻¹	2.39e+07 M⁻¹ s⁻¹	B4
0.112 nM	0.00243 s⁻¹	2.16e+07 M⁻¹ s⁻¹	B5
0.0335 nM	0.000469 s⁻¹	1.4e+07 M⁻¹ s⁻¹	B6
0.071 nM	0.000569 s⁻¹	8.02e+06 M⁻¹ s⁻¹	B7
0.0848 nM	0.00217 s⁻¹	2.56e+07 M⁻¹ s⁻¹	B8
0.0984 nM	0.00507 s⁻¹	5.15e+07 M⁻¹ s⁻¹	B9
0.261 nM	0.00481 s⁻¹	1.84e+07 M⁻¹ s⁻¹	B10
0.0224 nM	0.000269 s⁻¹	1.2e+07 M⁻¹ s⁻¹	B11
0.0494 nM	0.000861 s⁻¹	1.74e+07 M⁻¹ s⁻¹	B12
0.114 nM	0.0062 s⁻¹	5.47e+07 M⁻¹ s⁻¹	B13
0.0327 nM	0.00197 s⁻¹	6.02e+07 M⁻¹ s⁻¹	B14
0.18 nM	0.00404 s⁻¹	2.24e+07 M⁻¹ s⁻¹	B15
0.0102 nM	0.000123 s⁻¹	1.2e+07 M⁻¹ s⁻¹	B16
0.0651 nM	0.00122 s⁻¹	1.88e+07 M⁻¹ s⁻¹	B17
0.0192 nM	0.000345 s⁻¹	1.79e+07 M⁻¹ s⁻¹	B18
0.0335 nM	0.000659 s⁻¹	1.97e+07 M⁻¹ s⁻¹	B19
0.0785 nM	0.00138 s⁻¹	1.75e+07 M⁻¹ s⁻¹	B20
0.343 nM	0.0427 s⁻¹	1.25e+08 M⁻¹ s⁻¹	B21
0.134 nM	0.00393 s⁻¹	2.93e+07 M⁻¹ s⁻¹	B22
0.00727 nM	8e-05 s⁻¹	1.1e+07 M⁻¹ s⁻¹	B23
0.00921 nM	0.000119 s⁻¹	1.29e+07 M⁻¹ s⁻¹	B24
0.0116 nM	0.000105 s⁻¹	9.01e+06 M⁻¹ s⁻¹	B25

target: T1, recombinant Factor VIII (CSL627, …); experiment: SPR, anti-His capture; remark: another data set of the same source
Method: as §1, §2

Kd	koff	kon	Binder
0.00242 nM	7.21e-05 s⁻¹	2.98e+07 M⁻¹ s⁻¹	B26
0.00639 nM	0.000292 s⁻¹	4.56e+07 M⁻¹ s⁻¹	B27
0.00923 nM	9.52e-05 s⁻¹	1.03e+07 M⁻¹ s⁻¹	B28
0.0122 nM	9.36e-05 s⁻¹	7.68e+06 M⁻¹ s⁻¹	B29
0.00387 nM	7.64e-05 s⁻¹	1.97e+07 M⁻¹ s⁻¹	B30
0.00196 nM	2.69e-05 s⁻¹	1.37e+07 M⁻¹ s⁻¹	B31
0.00312 nM	0.000118 s⁻¹	3.78e+07 M⁻¹ s⁻¹	B32
